Measurements taken from the nanobody polyreactivity screen of Harvey et al. (2022).

experiment: yeast display, Sf9 membrane polyspecificity reagent, FACS + sequencing; frameworks hold sequencing errors
How it was run: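 Genes from sorted yeast were amplified by colony PCR, read by MiSeq 2 × 250 sequencing and filtered on CDR length. These cells carried a synthetic nanobody library in Saccharomyces cerevisiae BJ5465 and were sorted by FACS into low and high (top ~1%) gates on anti-HA and streptavidin fluorescence. Polyreactivity is labelled according to the gate of origin.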

Sequence | polyreactivity (PSR sort gate)
QVQLVESGGGLFQEGGSLRLSCAASGSIFSYYAMGWYRQAPGKERELVAAISTYGGRTYYADSVKGRFTISRDNAKNTVYLQMNSLKPEDTAVYYCAGPVRWKNYDYWGQGTPVTVSS | high polyreactivity
QVQLVESGGGLFQTGGSLRLSRAASGRTFRYYVMGWYRQAPWKESELVAAISWSGGRTNYADSVKGRFTISRDNAKNTVYLQMNCLKPEDTSVYYCIAAGPALRRYDYWGQGTQVTVSS | high polyreactivity
QVQLVESGGGLGQAGGSLGLSCAASGRTFYVNAMGWYRQAPGKERELVAAISWSGGSTYYADSVKGRFTISRDNAKNTVYLPINSLNPEDTAVYYCAAEDIEDYEYWGQGTQVTVSS | low polyreactivity
QVQLVESGGGLGQAGGSLRLICAASGSIFYSNAMGWYRQATGKERELVAAISWNGGRTYYADSVKGRFTISRDTAKNTVYLQMNSLKPEDTAVYFWAAKYRNRYDFWGQGTQVTVSS | low polyreactivity
QVQLVESGGGLGQAGGSLRLICAASGSTFRHYAMGWYRPAPRKERELVAVISWGGTSTYYADSVKGRFTISRDNAKNTVYLQMNSLKPEDTAVYYCNKAYFPIFKGYEMYYWGQGTQVTVSS | low polyreactivity
QVQLVESGGGLGQAGGSLRLSCAASGFIFGPYAMGWYRQARGKETELVAAISSSGGSTSYADSVKGRFTISRDNAKNTVYLQMNSLKPEDTAVYYCAARGRYRFYSNNYDYWGQGTQVTVSS | high polyreactivity
QVQLVESGGGLGQAGGSLRLSCAASGGTFYYYAMGWSRQAPGKERELVAAITESGGSTYYGDSVKGRFTISRDNAKNTVNLQMNSLKPEDTAVYYCAAETYYGDDGYWGQGTQVTVSS | low polyreactivity
QVQLVESGGGLGQAGGSLRLSCAASGIIFYPNAMGWYRQAPGKERELVAAISCRSGSTYYADSVKGRITISRDNEKNTVYLQMNSLKPEDTSVYYCAADRRRSYIWRYDYWGQGTQVTVSS | low polyreactivity
QVQLVESGGGLGQAGGSLRLSCAASGITYDGYAMGWYRQAPGKERELVAAITYSGGRTYYADSVKGRFTISRDNAKNTVYLQMNSLKPEDTAVYYCAVVSRRLYEYDYWGQGTQVTVSS | high polyreactivity
QVQLVESGGGLGQAGGSLRLSCAASGNTFYWNAMGWYRQAPGKERELVAAISTTGVSSYYADSVKGRFTISRDNAKNSVYLQMNSLKPEDTAVYYCAGEIIGYHTIYDYWGQGTQVTVSS | low polyreactivity
QVQLVESGGGLGQAGGSLRLSCAASGSTFQIYAMGWYREAPGKEWEFVAAITSSSSTNYADSVKGRFTISRDNAKNTVYLQMNSLKPEDTAVYYCAADVSWRSNWYDYWGQGTQVTVSS | low polyreactivity
QVQLVESGGGLGQAGGSLRLSCAASGYTFRNYVMGWYRPAPGKERQLVATISRGGRTNYADSVKGRFTISRDNAKNTVYLQMNSLKPEDTAVYYCNADWSRVPYRYDYWGQGTQVTVSS | high polyreactivity
QVQLVESGGGLGQAGGSLRLSSAASGRTVSTNDMGWYRHAPGKERELVAAIDFDSDSTYYADSVKGRFTISRDNAKNTVYLQMHSLKPEDTAVYYCAAQYFSYGESYEYWGQGTHVTVSS | low polyreactivity
QVQLVESGGGLGQAGGSLRLSSAASGSIFWFYAMGWYRQAPGKERELVAAITSSGGTDYADSVKGRFSISRDNAKNTVYLQMNSLKPEDSAVYYCAADRIGGPGSYLYDYWGQGTQVTVSS | low polyreactivity
QVQLVESGGGLHQAGGSLRLSCAASGSISGYNPMGWYRQAPGKESELVAVNTTDGSTNYADSVKGRFTISRDNAKNTVYLQMNSLKPEDTAVYYCNTHDGWRLLWEYDYWGQGTQVTVSS | low polyreactivity
QVQLVESGGGLLQAGGRLRLSCAASGFTSTRYAMGWYRQAPGKERELVAAISYGGGDTYYADSVKGRFTISRDNAKNTVYIQMNSMKPEDTAVYYCSSRLRSRNTRLYHWGQGTQGTVSS | high polyreactivity

Sequence | polyreactivity (PSR sort gate)
QVQLVESGGGLLQAGGSLRISCAASGRIFYAKAMGRYRQAPGKERELVAGISSGGITNYADSVKGRFTISRDNAKNTVYLQMNSLKPEDTAVYYCAVESWNRWRNRNDYWGQGTQVSVSS | low polyreactivity
QVQLVESGGGLLQAGGSLRLICAASGRIFTYNAMGWYRQAPGKERELVAAISRRGGTTYYADSVKGRFTISRDNAKNTVYLQMNSLKPEDTAVYYCAALLYYATDDDYWGQGTQVTVSS | high polyreactivity
QVQLVESGGGLLQAGGSLRLSCAASGFIFGGNAMGWYREAPGKERELVAAIRSGGSTYYADSVKVRFTISRDNAKNTVYLQMISLKPLDTAVDYCAVRLRYAYRARGNYWGQGTQVTVSS | low polyreactivity
QVQLVESGGGLLQAGGSLRLSCAASGFIFYDYAMGWYRQAPGKERELVAAITKPGGSTYYADSEKGRFTISRDNAKNTVYLQMNSLKPEDTAGYYCAADVMYYHKLTYGYDYWGQGTQVTVSS | high polyreactivity
QVQLVESGGGLLQAGGSLRLSCAASGFSFLCYAMGWYRQEPRKERELVASITYGGDSTYYADSVKGRFTISRDNAKNTVYLQMNSLKPEDTAGYYCNARPSYWWGGRLYGYWGQGTQVTVSS | high polyreactivity
QVQLVESGGGLLQAGGSLRLSCAASGGIIYYNAMGWSRQAPGKERELVAAIRYRGGSTYYADSVKGRFTISRDNEKNTVYLQMNSLKPEYTAVYYCAVDNLRRGLSLYDTLDYWGQGTQVTVSS | low polyreactivity
QVQLVESGGGLLQAGGSLRLSCAASGGIKSENAMGWYRQAPRKERELVAVITDGGSTNYADSVKGRFTISRDNAKNTVYLQMNSLKPEDTAVYYCAKDTYLELWLDPLYDYWGQGTQVTVSS | low polyreactivity
QVQLVESGGGLLQAGGSLRLSCAASGIIIVGYAMGWYRQAPGKERELVAAISRSSGSTYYADSVKGRFTISRDNAKNTVYLQMNSLKPEDTAVYYCARYNQYYSTEDYWGQGPQVTVSS | high polyreactivity
QVQLVESGGGLLQAGGSLRLSCAASGITFYLYAMGWYRQAPGKVRELVAAITKSGASTYYADSVKGRFTISRDNAKNTVYLQMNSLKPEDTAVYYCAAVLQSGYGYEYWGQGTQVTVSS | high polyreactivity
QVQLVESGGGLLQAGGSLRLSCAASGLIFQNYAMGSYRQAPGKEREFVATITSSGTSTYYADSVKGRFTISRDNAKNTVYLQMNSLKPEDTAVYYCAATGYWWEYDYWGQGTQVTVSS | high polyreactivity
QVQLVESGGGLLQAGGSLRLSCAASGLIFYDNMGWYRQAPGKERELVAAISSTGGSTSYADSVKGRFTISRDNAKNTVYLLMNSLKPEDTAVYYCAADSYPAYLGFVGFDYWGQGTQLTVSS | low polyreactivity
QVQLVESGGGLLQAGGSLRLSCAASGNTFVKYTMGWYRQAPGKERELVAAITWSGGSTSYADSVKGRFTISRDNAKNTVYLQMNSLKPEDTAVYYCAAAWSHSRWDTHDYWGQGTQVTVSS | low polyreactivity
QVQLVESGGGLLQAGGSLRLSCAASGRTFATYAMGWYRQAPGKERELVAAITSGGSTNYADSVKGRFTISRDNAKNTVYLQMNSLKPEDTAVYYCNAYKTNRGSGPWYTGRYDYWGQGTQVTVSS | low polyreactivity
QVQLVESGGGLLQAGGSLRLSCAASGRTFGSYAKGWYRQAPGKERELVAGIRSDDITHYADSVKGRFTISRDNAKNTVYLQMNSLKPEDTAVYYCAKDYKCIATEGAFDYWGQGTQVTVSS | low polyreactivity
QVQLVESGGGLLQAGGSLRLSCAASGRTFNKYAMGWYRKAPGIVRELVAAINYSGGRTYYADSVKGRFTISRDNAKNSVYLEMNSLKPEDTAVFYCAATPTFFVWQGYNYWGQGTQVTVSS | low polyreactivity
QVQLVESGGGLLQAGGSLRLSCAASGRTFTNSAMGWYRQEPGKERELVAGISSSGGRTYYAVSVKGRFTISRDNAMNTVYLQMNSLKAEDTAVYYCAAQHSRVYRRMDYWGQGTQVSVSS | high polyreactivity
